According to patent US20200399344A1 (SHATTUCK LABS, published 2020):
“And” between values parts separate entries of the source, which are not always exact repeats. Identical values can stand only once.

Assays:
[1] = target: T1, recombinant mCD47 (mCD47-His) protein (mouse, UniProt Q61735 19-140, limits assumed); assay: sandwich ELISA, anti-NKG2a antibody coated, mCD47-His detection (FIG. 38)
T1 construct: not shown: His tag
T1 sequence (looked up): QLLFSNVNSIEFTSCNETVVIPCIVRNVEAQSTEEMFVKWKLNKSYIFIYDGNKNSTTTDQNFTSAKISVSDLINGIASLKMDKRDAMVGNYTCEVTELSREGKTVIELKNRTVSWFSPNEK
Protocol: Increasing amounts of the mSIRPα-Fc-NKG2A chimeric protein was added and detected using mCD47-His. The CD86-Fc-NKG2A chimeric protein was used as a negative control.
To understand whether the mSIRPα-Fc-NKG2A chimeric protein can binds simultaneously to both anti-NKG2a and CD47, the following ELISA experiment was carried out. Briefly, and anti-NKG2a antibody was coated on plates. Increasing amounts of the mSIRPα-Fc-NKG2A and mCD48-Fc-NKG2A chimeric proteins were added to the plates for capture by the anti-NKG2a antibody. Further, recombinant mCD47 (mCD47-His) protein was added to the plate for capture by mSIRPα-Fc-NKG2A chimeric protein. The binding of the mCD47-His protein was detected using an anti-His HRP antibody.

[2] = target: T2, anti-mFc IgG antibody (plate-bound); assay: Fc ELISA: coat Anti-mFc (Jax), detect Anti-mFc-HRP (Jax)
T2 construct: also called anti-Fc antibody
From the text: A mouse whole IgG was used to generate a standard curve.

[3] = target: T3, recombinant human CD28-His (rhCD28-His) (human, UniProt P10747 19-152); assay: ELISA: coat rhCD28-His (Acro), detection printed as Anti-hFc-HRP
T3 construct: also called Human CD28-His protein; recombinant CD28 protein; not shown: His tag
T3 sequence (P10747 19-152 limits assumed): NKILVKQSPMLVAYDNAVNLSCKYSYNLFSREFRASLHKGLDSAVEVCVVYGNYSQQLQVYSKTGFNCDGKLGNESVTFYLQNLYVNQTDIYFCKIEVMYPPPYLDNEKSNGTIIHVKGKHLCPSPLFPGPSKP
Protocol: To understand whether the CD80 and CD86 parts of the hCD80-Fc-NKG2A and hCD86-Fc-NKG2A chimeric protein can bind CD28, ELISA-based assays were performed. Briefly, recombinant CD28 protein was coated on plates and increasing amounts of the hCD80-Fc-NKG2A, hCD86-Fc-NKG2A, and mCD48-Fc-NKG2A chimeric proteins, and recombinant human CD86-Fc (rhCD86-Fc) protein was added to the plates for capture by the plate-bound recombinant CD28 protein. The mCD48-Fc-NKG2A chimeric protein, and recombinant human CDrhCD86-Fc protein was used as negative and positive controls, respectively. The chimeric proteins bound to the recombinant CD28 protein was detected using an anti-human Fc HRP.

[4] = target: T4, HLA class I histocompatibility antigen, alpha chain E (HLA-E), plate-bound recombinant protein (human, UniProt P13747 22-305, limits assumed); assay: Dual binding ELISA: coat mHLA-E (Novus) as printed, detect Anti-mCD48 (R&D), HRP Anti-Goat HRP
T4 construct: no tag named there; also called recombinant HLA-E protein
T4 sequence (P13747 22-305 limits assumed): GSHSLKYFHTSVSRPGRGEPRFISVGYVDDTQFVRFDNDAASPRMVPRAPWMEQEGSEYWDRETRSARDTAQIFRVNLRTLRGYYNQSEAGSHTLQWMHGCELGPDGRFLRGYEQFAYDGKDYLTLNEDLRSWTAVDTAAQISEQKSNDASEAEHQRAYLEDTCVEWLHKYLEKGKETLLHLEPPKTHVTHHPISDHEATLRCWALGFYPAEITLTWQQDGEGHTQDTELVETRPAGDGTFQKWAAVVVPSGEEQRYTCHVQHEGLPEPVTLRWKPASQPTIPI

B1: mouse CD48-Fc-NKG2A chimeric protein (Fc fusion)
chain: FQGHSIPDINATTGSNVTLKIHKDPLGPYKRITWLHTKNQKILEYNYNSTKTIFESEFKGRVYLEENNGALHISNVRKEDKGTYYMRVLRETENELKITLEVFDPVPKPSIEINKTEASTDSCHLRLSCEVKDQHVDYTWYESSGPFPKKSPGYVLDLIVTPQNKSTFYTCQVSNPVSSKNDTVYFTLPCDLARSVPRDCGCKPCICTVPEVSSVFIFPPKPKDVLTITLTPKVTCVVVDISKDDPEVQFSWFVDDVEVHTAQTQPREEQFNSTFRSVSELPIMHQDWLNGKEFKCRVNSAAFPAPIEKTISKTKGRPKAPQVYTIPPPKEQMAKDKVSLTCMITDFFPEDITVEWQWNGQPAENYKNTQPIMDTDGSYFVYSKLNVQKSNWEAGNTFTCSVLHEGLHNHHTEKSLSHSPGIIEGRMDTPYTEAKAQINSSMTRTHRDINYTLSSAQPCPHCPKEWISYSHNCYFIGMERKSWNDSLVSCISKNCSLLYIDSEEEQDFLQSLSLISWTGILRKGRGQPWVWKEDSIFKPKIAEILHDECNCAMMSASGLTADNCTTLHPYLCKCKFPI
notes: also called mCD48-Fc-NKG2A
For B1, the binding result [1] was “no binding”, the EC50 [2] was 0.938 nM and 0.436 nM and the binding result [3] was “no binding (tested: log[Agonist] about 2.7, ug/ml)”. The EC50 [4] was 537 nM and 381 nM.
